Assay results as given in the RNAGym collection of RNA variant scans (doi:10.7554/elife.90254).

B1: OR4K15 (parent)
chain: GUUAACGGUCAUAGGCCAUGGAAACUAGGAGCACCAUUUCGCUGCCAGUGAAGAAAUGAACAAAGAAAAUCUGGGCCAGGCAGGCAUCAAAAGAAAUAGUCUUGCGCUCAACCAGAAAGUCUGUAAUCAUUUUAAGGGUA

Variants of: B1
Assay: self-cleavage, relative activity (ratio to wild type); higher = more cleavage; in vitro, sequencing; the parent is a self-cleaving ribozyme

| Variant | self-cleavage |
| --- | --- |
| GAUAACGGUCAUAGGCCAUGGAAACUAGGAGCACCAUUUCGCUGCCAGUGAAGAAAUGAGCAAAGAAAAUCUGGGCCAGGCAGGCAUCAAAAGAAAUAGUCUUGCGCUCAACCAGAAAGUCUGUAAUCAUUUUAAGGGUA [U2A A60G] | 1.13 |
| GAUAACGGUCAUAGGCCAUGGAAACUAGGAGCACCAUUUCGCUGCCAGUGAAGAAAUGACCAAAGAAAAUCUGGGCCAGGCAGGCAUCAAAAGAAAUAGUCUUGCGCUCAACCAGAAAGUCUGUAAUCAUUUUAAGGGUA [U2A A60C] | 1.97 |
| GAUAACGGUCAUAGGCCAUGGAAACUAGGAGCACCAUUUCGCUGCCAGUGAAGAAAUGAACAUAGAAAAUCUGGGCCAGGCAGGCAUCAAAAGAAAUAGUCUUGCGCUCAACCAGAAAGUCUGUAAUCAUUUUAAGGGUA [U2A A63U] | 1.62 |
| GAUAACGGUCAUAGGCCAUGGAAACUAGGAGCACCAUUUCGCUGCCAGUGAAGAAAUGAACAAAGAAAAUCUGGGCCAGGCAGGCAUCGAAAGAAAUAGUCUUGCGCUCAACCAGAAAGUCUGUAAUCAUUUUAAGGGUA [U2A A89G] | 1.07 |
| GAUAACGGUCAUAGGCCAUGGAAACUAGGAGCACCAUUUCGCUGCCAGAGAAGAAAUGAACAAAGAAAAUCUGGGCCAGGCAGGCAUCAAAAGAAAUAGUCUUGCGCUCAACCAGAAAGUCUGUAAUCAUUUUAAGGGUA [U2A U49A] | 1.64 |
| GAUAACGGUCAUAGGCCAUGGAAACUAGGAGCACCAUUUCGCUGCCAGUGAAGAAAUGAACAAAGAAAAUCUGGGCCAGGCAGGCAUCAAAAGAGAUAGUCUUGCGCUCAACCAGAAAGUCUGUAAUCAUUUUAAGGGUA [U2A A95G] | 1.21 |
| GAUAACGGUCAUAGGCCAUGGAAACUAGGAGCACCAUUUCGCUGCCAGUGAAGAAAUGAACAAAGAAAAUCUGGGCCAGGCAGGCAUCAAAAGAUAUAGUCUUGCGCUCAACCAGAAAGUCUGUAAUCAUUUUAAGGGUA [U2A A95U] | 0.86 |
| GAUAACGGUCAUAGGCCAUGGAAACUAGGAGCACCAUUUCGCUGCCAGUGAAGAAAUGAACAAAGAAAAUCUGGGCCAGGCAGGCAUCAUAAGAAAUAGUCUUGCGCUCAACCAGAAAGUCUGUAAUCAUUUUAAGGGUA [U2A A90U] | 1.25 |
| GAUAACGGUCAUAGGCCAUGGAAACUAGGAGCACCAUUUCGCUGCCAGUGAAGAAAUGAACAAAGAAAAUCUGGGCCAGGCAGGCAUCAAAAGAAAUGGUCUUGCGCUCAACCAGAAAGUCUGUAAUCAUUUUAAGGGUA [U2A A98G] | 0.1 |
| GAUAACGGUCAUAGGCCAUGGAAACUAGGAGCACCAUUUCGCUGCCAGUGAAGGAAUGAACAAAGAAAAUCUGGGCCAGGCAGGCAUCAAAAGAAAUAGUCUUGCGCUCAACCAGAAAGUCUGUAAUCAUUUUAAGGGUA [U2A A54G] | 0.63 |
| GAUAACGGUCAUAGGCCAUGGAAACUAGGAGCACCAUUUCGCUGCCAGUGAAGAAAUGAACAAAGAAAAUCUGGGCCAGGCAGGCAUCAAAAGAAAUAGUCUUGCGCUCAACCAGGAAGUCUGUAAUCAUUUUAAGGGUA [U2A A116G] | 0.75 |
| GAUAACGGUCAUAGGCCAUGGAAACUAGGAGCACCAUUUCGCUGCCAGUGAAGAAAUGAACAAAGAAAAUCUGGGCCAGGCAGGCAUCAAAAGAAAUAGUCUUGCGCUCAACCAGUAAGUCUGUAAUCAUUUUAAGGGUA [U2A A116U] | 0.18 |
| GAUAACGGUCAUAGGCCAUGGAAACUAGGAGCACCAUUUCGCUGCCAGUGAAGAAAUGAACAAAGAAAAUCUGGGCCAGGCAGGCAUCAAAAGAAAUAGUCUUGCGCUCAACCAGAAAGUCUGUAAUCAUUUUGAGGGUA [U2A A134G] | 1.65 |
| GAUAACGGUCAUAGGCCAUGGAAACUAGGAGCACCAUUUCGCUGCCAGUGAAGAAAUGAACAAAGAAAAUCUGGGCCAGGCAGGCAUCAAAAGAAAUAGUCCUGCGCUCAACCAGAAAGUCUGUAAUCAUUUUAAGGGUA [U2A U102C] | 1.15 |
| GAUAACGGUCAUAGGCCAUGGAAACUAGGAGCACCAUUUCGCUGCCAGUGAAGAAAUGAACAAAAAAAAUCUGGGCCAGGCAGGCAUCAAAAGAAAUAGUCUUGCGCUCAACCAGAAAGUCUGUAAUCAUUUUAAGGGUA [U2A G65A] | 0.89 |
| GAUAACGGUCAUAGGCCAUGGAAACUAGGAGCACCAUUUCGCUGCCAGUGAAGAAAUGAACAAAGAAAAUCCGGGCCAGGCAGGCAUCAAAAGAAAUAGUCUUGCGCUCAACCAGAAAGUCUGUAAUCAUUUUAAGGGUA [U2A U72C] | 0.48 |
| GAUAACGGUCAUAGGCCAUGGAAACUAGGAGCACCAUCUCGCUGCCAGUGAAGAAAUGAACAAAGAAAAUCUGGGCCAGGCAGGCAUCAAAAGAAAUAGUCUUGCGCUCAACCAGAAAGUCUGUAAUCAUUUUAAGGGUA [U2A U38C] | 1.82 |
| GAUAACGGUCAUAGGCCAUGGAAACUAGGAGCACCAUUUCGCUGCCAGUGAAGAAAUGAACAAAGAAAAUCUGGGCCAGGCAGGCAUCAAGAGAAAUAGUCUUGCGCUCAACCAGAAAGUCUGUAAUCAUUUUAAGGGUA [U2A A91G] | 0.7 |
| GAUAACGGUCAUAGGCCAUGGAAACUAGGAGCACCAUUUCGCUGCCAGUGAAGAAAUGAACAAAGAAAAUCUGGGCCAGGCAGGCAUCAAAAGAAAUAGUCUUGCGCUCAACCAGAGAGUCUGUAAUCAUUUUAAGGGUA [U2A A117G] | 0.59 |
| GAUAACGGUCAUAGGCCAUGGAAACUAGGAGCACCAUUUCGCUGCCAGUGAAGAAAUGAACAAAGAAAAUCUGGGCCAGGCAGGCAUCAAAAGAAAUAGUCUUGCGCUCAACCAGAUAGUCUGUAAUCAUUUUAAGGGUA [U2A A117U] | 0.49 |
| GAUAACGGUCAUAGGCCAUGGAAACUAGGAGCACCAUUUCGCUGCCAGUGAAGAAGUGAACAAAGAAAAUCUGGGCCAGGCAGGCAUCAAAAGAAAUAGUCUUGCGCUCAACCAGAAAGUCUGUAAUCAUUUUAAGGGUA [U2A A56G] | 0.89 |

| Variant | self-cleavage |
| --- | --- |
| GAUAACGGUCAUAGGCCAUGGAAACUAGGAGCACCAUUUCGCUGCCAGUGGAGAAAUGAACAAAGAAAAUCUGGGCCAGGCAGGCAUCAAAAGAAAUAGUCUUGCGCUCAACCAGAAAGUCUGUAAUCAUUUUAAGGGUA [U2A A51G] | 0.51 |
| GAUAACGGUCAUAGGCCAUGGAAACUAGGAGCACCAUUUCGCUGCCGGUGAAGAAAUGAACAAAGAAAAUCUGGGCCAGGCAGGCAUCAAAAGAAAUAGUCUUGCGCUCAACCAGAAAGUCUGUAAUCAUUUUAAGGGUA [U2A A47G] | 1.42 |
| GAUAACGGUCAUAGGCCAUGGAAACUAGGAGCACCAUUUCGCUGCCUGUGAAGAAAUGAACAAAGAAAAUCUGGGCCAGGCAGGCAUCAAAAGAAAUAGUCUUGCGCUCAACCAGAAAGUCUGUAAUCAUUUUAAGGGUA [U2A A47U] | 0.78 |
| GAUAACGGUCAUAGGCCAUGGAAACUAGGAGCACCAUUUCGCUCCCAGUGAAGAAAUGAACAAAGAAAAUCUGGGCCAGGCAGGCAUCAAAAGAAAUAGUCUUGCGCUCAACCAGAAAGUCUGUAAUCAUUUUAAGGGUA [U2A G44C] | 0.79 |
| GAUAACGGUCAUAGGCCAUGGAAACUAGGAGCACCAUUUCGCUGCCAGUGAAGAAAUGAACAAAGAAAGUCUGGGCCAGGCAGGCAUCAAAAGAAAUAGUCUUGCGCUCAACCAGAAAGUCUGUAAUCAUUUUAAGGGUA [U2A A69G] | 1.62 |
| GAUAACGGUCAUAGGCCAUGGAAACUAGGAGCACCAUUUCGCUGCCAGUGAAGAAAUGAACAAAGAAAAUCUGGGCCAGGCAGGCAUCAAAAGAAAUAGUCUUGCGCUCAACCUGAAAGUCUGUAAUCAUUUUAAGGGUA [U2A A114U] | 0.33 |
| GAUAACGGUCAUAGGCCAUGGAAACUAGGAGCACCACUUCGCUGCCAGUGAAGAAAUGAACAAAGAAAAUCUGGGCCAGGCAGGCAUCAAAAGAAAUAGUCUUGCGCUCAACCAGAAAGUCUGUAAUCAUUUUAAGGGUA [U2A U37C] | 1.34 |
| GAUAACGGUCAUAGGCCAUGGAUACUAGGAGCACCAUUUCGCUGCCAGUGAAGAAAUGAACAAAGAAAAUCUGGGCCAGGCAGGCAUCAAAAGAAAUAGUCUUGCGCUCAACCAGAAAGUCUGUAAUCAUUUUAAGGGUA [U2A A23U] | 1.24 |
| GAUAACGGUCACAGGCCAUGGAAACUAGGAGCACCAUUUCGCUGCCAGUGAAGAAAUGAACAAAGAAAAUCUGGGCCAGGCAGGCAUCAAAAGAAAUAGUCUUGCGCUCAACCAGAAAGUCUGUAAUCAUUUUAAGGGUA [U2A U12C] | 1.41 |
| GAUAACGGUCAUAGGCCAUGGAAACUAGGAGCACCAUUUCGCUGCCAGUGAAGAAAUGAACAAAGAAAAUCUGGGCCAGGCAGGCAUCAAAAGAAAUAGUCUUGCGCUCAACCAGAAAGUCUGUAGUCAUUUUAAGGGUA [U2A A126G] | 0.81 |
| GAUAACGGCCAUAGGCCAUGGAAACUAGGAGCACCAUUUCGCUGCCAGUGAAGAAAUGAACAAAGAAAAUCUGGGCCAGGCAGGCAUCAAAAGAAAUAGUCUUGCGCUCAACCAGAAAGUCUGUAAUCAUUUUAAGGGUA [U2A U9C] | 1.52 |
| GAUAACGGUCAUAGGCCAUGGAAACUAGGAGCACCAUUUCGCCGCCAGUGAAGAAAUGAACAAAGAAAAUCUGGGCCAGGCAGGCAUCAAAAGAAAUAGUCUUGCGCUCAACCAGAAAGUCUGUAAUCAUUUUAAGGGUA [U2A U43C] | 0.84 |
| GAUAACGGUCAUAGGCCAUGGAAACUAGGAGCACCAUUUCGCUGCCAGUGAAGAAAUGAACGAAGAAAAUCUGGGCCAGGCAGGCAUCAAAAGAAAUAGUCUUGCGCUCAACCAGAAAGUCUGUAAUCAUUUUAAGGGUA [U2A A62G] | 1.23 |
| GAUAACGGUCAUAGGCCAUGGAAACUAGGAGCACCAUUUCGCUGCCAGUGAAGAAACGAACAAAGAAAAUCUGGGCCAGGCAGGCAUCAAAAGAAAUAGUCUUGCGCUCAACCAGAAAGUCUGUAAUCAUUUUAAGGGUA [U2A U57C] | 0.92 |
| GAUAACGGUCAUAGGCCAUGGAAACUAGGAGCACCAUUUCGCUGCCAGUGAAGAAAUGAACAAAGAAAACCUGGGCCAGGCAGGCAUCAAAAGAAAUAGUCUUGCGCUCAACCAGAAAGUCUGUAAUCAUUUUAAGGGUA [U2A U70C] | 0.67 |
| GAUAACGGUUAUAGGCCAUGGAAACUAGGAGCACCAUUUCGCUGCCAGUGAAGAAAUGAACAAAGAAAAUCUGGGCCAGGCAGGCAUCAAAAGAAAUAGUCUUGCGCUCAACCAGAAAGUCUGUAAUCAUUUUAAGGGUA [U2A C10U] | 0.88 |
| GAUAACGGUCAUAGGCCAUGGAAACUAGGAGCACCAUUUCGCUGCCAGUGAAGAAAUGAACAAGGAAAAUCUGGGCCAGGCAGGCAUCAAAAGAAAUAGUCUUGCGCUCAACCAGAAAGUCUGUAAUCAUUUUAAGGGUA [U2A A64G] | 1.24 |
| GAUAACGGUCAUAGGCCAUGGAAACUAGGAGCACCAUUCCGCUGCCAGUGAAGAAAUGAACAAAGAAAAUCUGGGCCAGGCAGGCAUCAAAAGAAAUAGUCUUGCGCUCAACCAGAAAGUCUGUAAUCAUUUUAAGGGUA [U2A U39C] | 1.26 |
| GAUAACGGUCAUAGGCCAUGGAAACUAGGAGCACCAUUUCGCUGCCAGUGAAGAAAUGAACAAAGAAGAUCUGGGCCAGGCAGGCAUCAAAAGAAAUAGUCUUGCGCUCAACCAGAAAGUCUGUAAUCAUUUUAAGGGUA [U2A A68G] | 0.8 |
| GAUAACGGUCAUAGGCCAUGGAAACUAGGAGCACCAUUUCGCUGCCAGUGAAGAAAUGAACAAAGAAUAUCUGGGCCAGGCAGGCAUCAAAAGAAAUAGUCUUGCGCUCAACCAGAAAGUCUGUAAUCAUUUUAAGGGUA [U2A A68U] | 0.46 |
